From patent US20180282719A1 (published 2018)
Blank lines part the entries; values can stand above or below the binder they belong to.

Key:
[1] = molecular target: T1, soluble mouse IL-31 receptor (mouse, UniProt Q8K5B1 19-499); assay: SPR Biacore T100, antibody on protein A/G chip, soluble mouse IL-31 receptor analyte, pH 5.5, 25 C
T1 sequence (looked up): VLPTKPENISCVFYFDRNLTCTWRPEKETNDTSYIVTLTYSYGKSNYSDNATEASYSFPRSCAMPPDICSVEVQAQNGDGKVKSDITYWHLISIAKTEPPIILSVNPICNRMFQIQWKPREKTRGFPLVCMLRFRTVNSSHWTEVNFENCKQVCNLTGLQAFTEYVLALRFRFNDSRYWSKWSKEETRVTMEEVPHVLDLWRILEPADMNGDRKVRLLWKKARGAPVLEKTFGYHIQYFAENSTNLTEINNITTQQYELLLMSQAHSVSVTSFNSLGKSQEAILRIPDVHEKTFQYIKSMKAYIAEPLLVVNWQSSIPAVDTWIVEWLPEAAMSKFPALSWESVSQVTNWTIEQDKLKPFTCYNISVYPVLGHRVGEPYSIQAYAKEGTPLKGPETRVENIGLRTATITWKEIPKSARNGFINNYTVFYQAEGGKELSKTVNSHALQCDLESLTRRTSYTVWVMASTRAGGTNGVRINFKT
Description: (§1) Kinetic analysis of antigen-antibody reactions at pH 5.5 and pH 7.4 was carried out using a Biacore T100™ surface plasmon resonance system (GE Healthcare) for the two types of antibodies prepared as mentioned above: Anti-IL31R wild type and Anti-IL31R clone 1 (buffer: DPBS(−) (pH 7.4 or pH 5.5), 150 mM NaCl, 0.01% TWEEN® 20 (polyoxyethelene sorbitan monolaurate), 0.02% NaN₃). The antibodies were bound to a sensor chip on which recomb-protein A/G (Pierce) was immobilized by amine coupling, and then the soluble mouse IL-31 receptor (prepared according to the method described in WO 2007/142325) adjusted to an appropriate concentration was injected therein as an analyte. All the measurements were carried out at 25° C. Association rate constants kₐ (1/Ms) and dissociation rate constants kd (1/s) were calculated using Biacore T100™ Evaluation Software (GE Healthcare), and dissociation constants KD (M) were calculated based on those values (Table 16). Furthermore, the ratio of affinity at pH 5.5 and pH 7.4 was calculated for each clone to evaluate the pH-dependent binding.

[2] = molecular target: T1, soluble mouse IL-31 receptor; assay: SPR Biacore T100, antibody on protein A/G chip, soluble mouse IL-31 receptor analyte, 25 C, ratio of pH 5.5 to pH 7.4
Description: as §1

[3] = molecular target: T1, soluble mouse IL-31 receptor; assay: SPR Biacore T100, antibody on protein A/G chip, soluble mouse IL-31 receptor analyte, pH 7.4, 25 C
Description: as §1

[4] = molecular target: T1, soluble mouse IL-31 receptor; assay: SPR Biacore T100, antibody on protein A/G chip, soluble mouse IL-31 receptor analyte, 25 C
Description: as §1

[5] = molecular target: T2, recombinant soluble human IL-6 receptor (SR344) (human, UniProt P08887 20-344, biotinylated (sites not given) where immobilized via streptavidin or used in phage ELISA); assay: SPR Biacore T100, biotinylated SR344 on streptavidin chip (model of membrane IL-6 receptor), antibody 0.5 ug/mL as analyte, bound at pH 7.4, dissociation at pH 5.8, 37 C
T2 construct: also called soluble IL-6 receptor; membrane-type IL-6 receptor (when biotinylated and immobilized on the chip)
T2 sequence (looked up): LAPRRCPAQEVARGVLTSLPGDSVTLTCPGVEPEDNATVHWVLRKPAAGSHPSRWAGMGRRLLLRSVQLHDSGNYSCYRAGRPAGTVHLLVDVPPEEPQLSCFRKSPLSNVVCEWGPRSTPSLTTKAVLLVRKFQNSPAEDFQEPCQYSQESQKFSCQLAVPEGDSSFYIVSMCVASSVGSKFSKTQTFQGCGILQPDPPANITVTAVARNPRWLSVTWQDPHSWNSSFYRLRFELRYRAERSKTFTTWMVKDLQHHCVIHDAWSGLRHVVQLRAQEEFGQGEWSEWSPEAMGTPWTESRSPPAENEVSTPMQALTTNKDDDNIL
Description: (§2) The binding to membrane IL-6 receptor was evaluated by evaluating the binding to the IL-6 receptor immobilized onto a sensor chip. SR344 was biotinylated according to a method known to persons skilled in the art, and the biotinylated SR344 was immobilized on the sensor chip via streptavidin by utilizing the affinity between streptavidin and biotin. All the measurements were carried out at 37° C., and the mobile phase buffer contained 10 mM MES (pH 5.8), 150 mM NaCl and 0.05% TWEEN® 20 (polyoxyethelene sorbitan monolaurate). The pH-dependent binding clones were injected therein under the condition of pH 7.4 and allowed to bind to SR344 (injection sample buffer: 10 mM MES (pH 7.4), 150 mM NaCl, 0.05% TWEEN® 20 (polyoxyethelene sorbitan monolaurate)), and the pH-dependent dissociation of each clone at the mobile phase pH of 5.8 was observed (FIG. 10).
(§3) The dissociation rate […]) at pH 5.8 was calculated using Biacore T100™ Evaluation Software (GE Healthcare) by fitting only the dissociation phase at pH 5.8, where 0.5 μg/mL of the sample was bound in 10 mM MES (pH 7.4), 150 mM NaCl, and 0.05% TWEEN® 20 (polyoxyethelene sorbitan monolaurate), and dissociated in 10 mM MES (pH 5.8), 150 mM NaCl, and 0.05% TWEEN® 20 (polyoxyethelene sorbitan monolaurate). Similarly, the dissociation rate (kd(1/s)) at pH 7.4 was calculated using Biacore T100™ Evaluation Software (GE Healthcare) by fitting only the dissociation phase at pH 7.4, where 0.5 μg/mL of the sample was bound in 10 mM MES (pH 7.4), 150 mM NaCl, and 0.05% TWEEN® 20 (polyoxyethelene sorbitan monolaurate), and dissociated in 10 mM MES (pH 7.4), 150 mM NaCl, and 0.05% TWEEN® 20 (polyoxyethelene sorbitan monolaurate).

[6] = molecular target: T2, recombinant soluble human IL-6 receptor …; assay: SPR Biacore T100, antibody on protein A/G chip, SR344 analyte, pH 5.8, 37 C
Description: (§4) Kinetic analyses of antigen-antibody reactions at pH 5.8 and pH 7.4 were carried out using a Biacore™ T100 surface plasmon resonance system (GE Healthcare) on the four antibodies: humanized PM1 antibody (WT) and H3pI/L73, CLH5/L73, and H170/L82 produced in Examples 2 and 4 (buffer: 10 mM MES (pH 7.4 or pH 5.8), 150 mM NaCl, and 0.05% TWEEN® 20 (polyoxyethelene sorbitan monolaurate)). Various antibodies were bound onto a sensor chip immobilized with recomb-protein A/G (Pierce) by amine coupling. SR344 adjusted to concentrations of 9.8 to 400 nM was injected to the chip as an analyte. […] All the measurements were carried out at 37° C. Association rate constants kₐ (1/Ms) and dissociation rate constants kd (1/s) were calculated using Biacore T100™ Evaluation Software (GE Healthcare), and dissociation constants KD (M) were calculated on the basis of those values (Table 5). Moreover, the ratio of the affinities at pH 5.8 and pH 7.4 were calculated for each clone to evaluate pH-dependent binding. All the measurements were carried out at 37° C.

[7] = molecular target: T2, recombinant soluble human IL-6 receptor …; assay: SPR Biacore T100, antibody on protein A/G chip, SR344 analyte, 37 C, ratio of pH 5.8 to pH 7.4
Description: as §4

[8] = molecular target: T2, recombinant soluble human IL-6 receptor …; assay: SPR Biacore T100, antibody on protein A/G chip, SR344 analyte, 37 C
Description: as §4

[9] = molecular target: T2, recombinant soluble human IL-6 receptor …; assay: SPR Biacore T100, antibody on protein A/G chip, SR344 analyte, pH 7.4, 37 C
Description: as §4

[10] = molecular target: T2, recombinant soluble human IL-6 receptor …; assay: SPR Biacore T100, biotinylated SR344 on streptavidin chip (model of membrane IL-6 receptor), antibody 0.5 ug/mL as analyte, bound at pH 7.4, dissociation at pH 7.4, 37 C
Description: as §2, §3

[11] = molecular target: T2, recombinant soluble human IL-6 receptor …; assay: SPR Biacore T100, integrated RU of SR344 bound over ten cycles, 37 C
Description: The produced pH-dependent binding clones described above were analyzed using a Biacore T100™ surface plasmon resonance system (GE Healthcare) for their ability to bind to the antigen SR344 multiple times at pH 5.8 and pH 7.4. More specifically, the analysis was carried out as follows. All the measurements were carried out at 37° C. First, the sample antibodies described above were bound onto a recomb-protein A/G (Pierce)-immobilized sensor chip by amine-coupling, where the mobile phase buffer was 10 mM MES (pH 5.8), 150 mM NaCl, and 0.05% TWEEN® 20 (polyoxyethelene sorbitan monolaurate) (step 1). SR344 adjusted to a concentration of about 40 nM was injected as an analyte for 3 minutes at pH 7.4 and allowed to bind (the buffer for injected SR344 was 10 mM MES (pH 7.4), 150 mM NaCl, and 0.05% TWEEN® 20 (polyoxyethelene sorbitan monolaurate)) (step 2). Subsequently, the injection of SR344 was discontinued and a mobile phase of pH 5.8 was allowed to flow for about 70 seconds to expose the antibody/SR344 complex under acidic conditions (step 3). Ten sets of this binding (step 2)/acidity exposure (step 3) process were continuously repeated to observe the sensorgram in real-time, which is shown in FIG. 11. […] In the 10-set repetition of the binding (step 2) and acidic exposure (step 3), almost all H170/L82 and CLH5/L73 antibodies were able to bind to new antigens in each set. […]

[12] = molecular target: T2, recombinant soluble human IL-6 receptor …; assay: SPR Biacore T100, biotinylated SR344 on streptavidin chip (model of membrane IL-6 receptor), antibody 0.5 ug/mL as analyte, 37 C
Description: as §2, §3

Kd [1]: 22000 nM
koff [1]: 0.024 s⁻¹
kon [1]: 1100 M⁻¹ s⁻¹
KD (pH 5.5)/KD (pH 7.4) [2]: 1000
Kd [3]: 22 nM
koff [3]: 0.0033 s⁻¹
kon [3]: 170000 M⁻¹ s⁻¹
pH-dependent binding ability relative to WT [4]: ~300 fold
B1: Anti-IL31R clone 1 (antibody, human IgG1, lambda, V domains shown)
VH: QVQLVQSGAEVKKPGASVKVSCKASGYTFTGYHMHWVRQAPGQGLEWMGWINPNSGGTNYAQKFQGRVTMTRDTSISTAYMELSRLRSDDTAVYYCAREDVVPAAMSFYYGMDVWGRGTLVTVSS
VL: LPVLTQPPSVSVAPGQTARITCGGNNIGSKTVYWYQQEPGQAPVLVVYDDTDRPAGIPERFSGANSGNTATLTISRVEAGDEADYYCQVWDSSTDHGVFGGGTKLTVLG
notes: H chain (c1) / L chain (WT)

koff [5]: 0.00567 s⁻¹
Kd [6]: 74 nM
koff [6]: 0.028 s⁻¹
kon [6]: 380000 M⁻¹ s⁻¹
KD (pH 5.8)/KD (pH 7.4) [7]: 66.1
pH-dependent binding (affinity ratio) relative to WT [8]: > 15 fold
Kd [9]: 1.1 nM
koff [9]: 0.00079 s⁻¹
kon [9]: 710000 M⁻¹ s⁻¹
koff [10]: 0.00104 s⁻¹
total amount of antigen bound over ten cycles relative to WT [11]: ~4 fold
kd ratio pH 5.8/pH 7.4 [12]: 5.5
B2: CLH5/L73 (antibody, IgG1, V domains shown)
VH: QVQLQESGPGLVKPSETLSLTCAVSGYSISHDHAWSWVRQPPGEGLEWIGHISYSGITNYNPHLKGRVTISRDTSKNQFSLKLSSVTAADTAAYYCARFLARITAHDHWGEGTLVTVSS
VL: DIQMTQSPSSLSASVGDSVTITCQASQHISSHLNWYQQKPGKAPELLIYYGSHLHSGVPSRFSGSGSGTDFTFTISSLEAEDAATYYCGQGNRLPYTFGQGTKVEIE
notes: expressed and purified as IgG
